The assay addresses T1, Zwf sub-unit (Zwf protein) of glucose 6-phosphate dehydrogenase from Corynebacterium glutamicum ATCC13032 (Corynebacterium glutamicum ATCC13032).
T1 construct: also called Zwf gene product; 60 kDa protein
T1 chain: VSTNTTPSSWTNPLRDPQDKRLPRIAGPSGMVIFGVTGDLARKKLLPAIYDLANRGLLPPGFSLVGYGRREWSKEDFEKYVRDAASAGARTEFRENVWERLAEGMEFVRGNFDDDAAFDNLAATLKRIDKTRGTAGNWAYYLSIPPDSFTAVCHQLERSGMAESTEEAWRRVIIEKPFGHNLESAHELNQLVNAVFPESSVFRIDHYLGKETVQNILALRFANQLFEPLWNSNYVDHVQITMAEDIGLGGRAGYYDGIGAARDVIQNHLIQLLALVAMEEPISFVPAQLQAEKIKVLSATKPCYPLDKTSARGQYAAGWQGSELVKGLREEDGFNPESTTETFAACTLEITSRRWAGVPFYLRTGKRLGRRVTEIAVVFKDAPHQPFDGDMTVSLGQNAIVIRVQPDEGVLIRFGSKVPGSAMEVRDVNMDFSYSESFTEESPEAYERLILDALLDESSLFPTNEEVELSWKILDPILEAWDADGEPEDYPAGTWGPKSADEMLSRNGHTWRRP
The assay can be described thus: co-purification over DEAE, Red-Sepharose and 2'5'-ADP-sepharose and gel filtration (Superdex G200pg); SDS-PAGE. Background: Size exclusion chromatography separates by hydrodynamic size, large species first.

B1: OpcA sub-unit (OpcA protein) of glucose 6-phosphate dehydrogenase from Corynebacterium glutamicum ATCC13032 (enzyme)
chain: MIFELPDTTTQQISKTLTRLRESGTQVTTGRVLTLIVVTDSESDVAAVTESTNEASREHPSRVIILVVGDKTAENKVDAEVRIGGDAGASEMIIMHLNGPVADKLQYVVTPLLLPDTPIVAWWPGESPKNPSQDPIGRIAQRRITDALYDRDDALEDRVENYHPGDTDMTWARLTQWRGLVASSLDHPPHSEITSVRLTGASGSTSVDLAAGWLARRLKVPVIREVTDAPTVPTDEFGTPLLAIQRLEIVRTTGSIIITIYDAHTLQVEMPESGNAPSLVAIGRRSESDCLSEELRHMDPDLGYQHALSGLSSVKLETV
notes: also called OpcA gene product; 30 kDa protein
As for B1, the binding result was “binds”.
